This note sets out measurements from PMC5792442, “A comparative Study of Aptasensor Vs Immunosensor for Label-Free PSA Cancer Detection on GQDs-AuNRs Modified Screen-Printed Electrodes”.

Data set [1] has as its target T1, Prostate specific antigen (PSA) (UniProt P07288 25-261). The data set is described as follows: electrochemical impedance spectroscopy (immobilized DNA); Rct unchanged with PSA; 0.1 M PBS pH 7.4, with or without 5 mM [Fe(CN)6]3-/4-; PSA 0-11.06 ng/mL; temperature not stated. The conditions noted are these: protein: commercial.
Data set [2] concerns the target T1, Prostate specific antigen (PSA). The data set is described as follows: electrochemical impedance spectroscopy, CV and DPV (immobilized aptamer); 5 mM [Fe(CN)6]3-/4-; also EIS without redox probe; LOD 0.14 ng/mL; 0.1 M PBS pH 7.4, with or without 5 mM [Fe(CN)6]3-/4-; PSA 0-11.06 ng/mL; temperature not stated. The conditions noted are these: protein: commercial.

T1 sequence (P07288 25-261): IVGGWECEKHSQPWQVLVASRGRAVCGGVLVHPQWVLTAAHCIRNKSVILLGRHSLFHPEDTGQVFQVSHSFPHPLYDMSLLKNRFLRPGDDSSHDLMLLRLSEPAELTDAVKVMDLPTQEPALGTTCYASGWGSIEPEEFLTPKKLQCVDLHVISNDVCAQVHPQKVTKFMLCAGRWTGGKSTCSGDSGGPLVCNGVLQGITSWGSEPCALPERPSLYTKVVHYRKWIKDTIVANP

Take TTTTGCCATCGGGGCCATGTTCAA (ssDNA) [random single strand DNA]: the binding result in data set [1] is listed as “no binding”. ATTAAAGCTCGCCATCAAATAGC (ssDNA) [PSA-Aptamer]: the binding result in data set [2] is listed as “binds”.
